The source of these data is doi:10.1101/266643 (bioRxiv, 2018).

This experiment addresses TrkA receptor (tropomyosin receptor kinase A) on NIH3T3-TrkA cells (UniProt P04629 33-796).

TrkA receptor (tropomyosin receptor kinase A) on NIH3T3-TrkA cells, sequence (P04629 33-796): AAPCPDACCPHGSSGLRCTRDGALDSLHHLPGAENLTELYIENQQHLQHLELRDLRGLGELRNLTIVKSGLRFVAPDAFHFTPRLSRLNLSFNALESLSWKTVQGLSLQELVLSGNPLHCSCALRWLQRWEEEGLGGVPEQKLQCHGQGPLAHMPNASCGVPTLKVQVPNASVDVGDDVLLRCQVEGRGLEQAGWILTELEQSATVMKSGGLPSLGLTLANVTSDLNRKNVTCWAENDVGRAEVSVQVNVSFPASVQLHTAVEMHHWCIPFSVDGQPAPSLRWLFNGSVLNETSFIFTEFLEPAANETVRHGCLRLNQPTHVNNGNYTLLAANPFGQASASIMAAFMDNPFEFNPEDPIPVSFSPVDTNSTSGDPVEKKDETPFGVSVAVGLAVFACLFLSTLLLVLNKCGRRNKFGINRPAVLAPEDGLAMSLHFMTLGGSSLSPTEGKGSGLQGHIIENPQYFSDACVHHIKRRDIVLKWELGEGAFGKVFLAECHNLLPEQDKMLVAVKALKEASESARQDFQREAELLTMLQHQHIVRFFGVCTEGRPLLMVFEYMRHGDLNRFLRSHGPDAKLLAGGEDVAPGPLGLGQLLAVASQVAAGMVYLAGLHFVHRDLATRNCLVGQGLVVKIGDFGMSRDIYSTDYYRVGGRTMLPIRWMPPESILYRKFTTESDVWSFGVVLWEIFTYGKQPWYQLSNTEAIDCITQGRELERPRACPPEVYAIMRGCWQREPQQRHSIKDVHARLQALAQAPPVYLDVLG

B1: wildtype nerve growth factor (wtNGF), monobiotinylated, with AviTag (ligand, mouse, UniProt P01139 122-241, looked up)
chain: SSTHPVFHMGEFSVCDSVSVWVGDKTTATDIKGKEVTVLAEVNINNSVFRQYFFETKCRASNPVESGCRGIDSKHWNSYCTTTHTFVKALTTDEKQAAWRFIRIDTACVCVLSRKATRRG
modifications: biotin on the AviTag (BirA co-expressed); conjugated to streptavidin-QD655 for the assays on cells
By Kd is commonly meant the concentration at which binding is half-saturated. Molecule B1 showed a Kd of 2.27 nM.

B2: NGF^R100W, mature form of the HSAN V mutant nerve growth factor, monobiotinylated, with AviTag (ligand)
chain: SSTHPVFHMGEFSVCDSVSVWVGDKTTATDIKGKEVTVLAEVNINNSVFRQYFFETKCRASNPVESGCRGIDSKHWNSYCTTTHTFVKALTTDEKQAAWWFIRIDTACVCVLSRKATRRGGGGLNDIFEAQKIEWHE
modifications: biotin on the AviTag (BirA co-expressed); conjugated to streptavidin-QD655 for the assays on cells
B2 registered a Kd of 2.79 nM.
